Measurements as given in paper doi:10.1101/2022.09.30.510402.

Biological target: modified αM subunit in which the αMI-domain was deleted (I-less form of Mac-1) (human) (UniProt P11215)
Assay: co-IP

Chain of CD47 (Q08722 19-323): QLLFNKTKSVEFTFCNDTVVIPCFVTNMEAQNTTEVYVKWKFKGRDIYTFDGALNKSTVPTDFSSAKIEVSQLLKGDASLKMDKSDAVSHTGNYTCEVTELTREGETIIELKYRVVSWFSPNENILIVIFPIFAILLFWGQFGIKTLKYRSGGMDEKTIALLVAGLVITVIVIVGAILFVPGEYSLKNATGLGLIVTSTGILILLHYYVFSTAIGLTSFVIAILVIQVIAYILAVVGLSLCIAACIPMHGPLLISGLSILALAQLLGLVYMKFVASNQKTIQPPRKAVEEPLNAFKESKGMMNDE

- fold more CD47 bound than by the whole integrin: 1.5
Substance: CD47 (from UniProt Q08722 19-323) (natural protein)
